Test results taken from article PMC7866087, “Evaluation of Computationally Designed Peptides against TWEAK, a Cytokine of the Tumour Necrosis Factor Ligand Family” (International Journal of Molecular Sciences, 2021).

Target: T1, human His6-TWEAK protein (Homo sapiens, UniProt O43508)
T1 construct: purchased R&D Systems
T1 sequence (O43508 97-249 limits assumed): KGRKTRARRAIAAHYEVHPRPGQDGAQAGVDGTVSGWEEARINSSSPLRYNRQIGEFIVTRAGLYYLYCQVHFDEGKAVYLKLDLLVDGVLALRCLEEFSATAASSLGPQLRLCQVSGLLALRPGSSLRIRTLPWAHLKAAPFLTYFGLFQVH
Assay: SPR binding of peptides to immobilized His6-TWEAK
Settings: for binding affinity for immobilized TWEAK: negative controls, global curve fit not attempted
From the text: SPR biosensor interaction analysis, a label-free screening approach, was used for real-time monitoring of the kinetics and affinity of peptide hits to TWEAK previously identified by cell-based screening. Peptides from pools 1 and 5 were selected both as positive (49, 30, 35 and 43) and negative hits (1 and 42). For our purposes, TWEAK was chosen as ligand, while peptides were chosen as analytes and passed across ligand-derivatized surface. Nitrilotriacetic acid-coated sensor chips (NTA chip) and a coupling approach that results in the capture of a His6-protein in a non-random orientation by the His6 epitope prior to direct free amine-based covalent coupling was used for histidine-tagged TWEAK immobilization.
After chip validation, peptides selected on our cell-based microarray screening were tested.
For each titration, a zero-analyte surface as a control was subtracted from test sensorgram as well as non-specific binding to the blank flow cell without protein; and the chip surface was regenerated in order to remove any remaining analyte. The black curves show the experimental data, while the overlaid red lines represent a global fit of the entire data set to a 1:1 Langmurian interaction model. The fitting process provided both kinetic association and dissociation rate constants (Ka and Kd), as well as equilibrium dissociation constant (KD) values indicated in Figure 6.
Binding assays were performed at 25 °C in a Biacore 3000 instrument (GE Healthcare, Uppsala, Sweden) using nitrilotriacetic (NTA) sensor chips (GE Healthcare) and HBS-EP (0.01 M HEPES pH 7.4, 0.15 M NaCl, 3 mM EDTA, 0.005 % v/v Surfactant P20) as running buffer. Histidine-tagged human TWEAK (His6-TWEAK) protein (R&D Systems, Minneapolis, MN, USA) was covalently immobilized on the sensor surface using a capture coupling method. Briefly, the NTA surface was first stabilized by injection of regeneration buffer (20 μL EDTA-containing running buffer at 20 μL/min) followed by Ni^2+ binding to the surface (40 μL of 500 μM NiCl2 in running buffer at 20 μL/min). The carboxymethyl dextran surface was then activated for primary amine coupling by injecting coupling solution (30 μL of a 1:1 N-hydroxysuccinimide (NHS)/1-ethyl-3-[3-(dimethylamino)-propyl]carbodiimide hydrochloride (EDC) mixture at 5 μL/min). His6-TWEAK protein in pH 7.4 running buffer was then injected over the surface (60 μL of 10 μg/mL His6-TWEAK at 5 μL/min). To block uncoupled primary amines on the sensor surface, ethanolamine was passed over the surface (35 μL 1M ethanolamine at 5 μL/min). Ligand surfaces were finally conditioned with a 20 µL injection of regeneration solution containing 350 mM EDTA at 20 μL/min. Immobilization levels ranged from 1500 to 7000 resonance units (RUimmob) to test different ligand densities. A blank flow cell on the chip was created by simple injection of 20 μL of regeneration buffer injected over the sensor surface.
Binding experiments using a monoclonal anti-TWEAK antibody (Abcam ref. 199405, Cambridge, UK) were run to ascertain adequate functionalization of the immobilized surface. Selected synthetic TWEAK-Fn14 inhibitory peptides at two-fold serial dilutions from 800 µM to 0 µM in running buffer were flown over the chip for 5 min at 35 µL/min. The dissociation phase was monitored for 10 min at the same flow rate and followed by a regeneration step with 10 µL of 18 mM NaOH. Specific binding responses for each channel were obtained by double referencing; subtracting non-specific binding to the blank flow cell plus an internal reference standard, namely buffer injection response. Each sample was run in triplicate. The experimental data were fitted to a 1:1 Langmuir binding model by the BIAevaluation software version 4.1 (GE Healthcare, Uppsala, Sweden).

[1] = 25 °C, HBS-EP pH 7.4, Biacore 3000, NTA chip, 1:1 Langmuir global fit, representative of at least three independent experiments

Row | Substance | binding affinity for immobilized TWEAK | ka [1] | kd [1]
1 | 1: GNGTDDNSGTSY [Peptide 1] | negligible binding affinity |  | 
2 | 42: YNGHVKDD [Peptide 42] | negligible binding affinity |  | 
3 | SWYDHMAGDSSY [Peptide 35] |  | 2.06 M⁻¹ s⁻¹ | 0.00285 s⁻¹
